Reference: patent publication US20190276541A1 (Seagen, published 2019)

Biological target: T1, CD3 on human T cells (human, UniProt P07766 23-207)
T1 construct: whole, on cells; The native CD3 complex on primary T cells, which were gated with anti-CD2-FITC; also called T cell receptor CD3; CD3 complex
Test: flow cytometry on human T cells in PBMCs, anti-Fc Alexa 647 secondary
Method: T cells are used to assess binding of antibodies to CD3. For T cell binding assay, PBMCs are isolated from 100 ml of human blood sample using the protocol described previously. […] 50 μl of cells are added to each well of an assay plate. […] Equal volumes of PBMCs and bispecific antibody dilutions are mixed to produce a binding curve. Anti-CD2-FITC (BD Biosciences, San Jose, Calif.) is added to each well to selectively stain T cells. The plate is incubated for 1 hour at 4° C. Cells are washed and pelleted three times with FACS buffer consisting of PBS, 5% FBS and 0.05% sodium azide. […] Cells are washed and pelleted three times again with FACS buffer. Cells are then resuspended in 200 μL FACS buffer and analyzed on a BD ACCURI™ C6 flow cytometer (BD Biosciences, San Jose, Calif.).

T1 sequence (P07766 23-207): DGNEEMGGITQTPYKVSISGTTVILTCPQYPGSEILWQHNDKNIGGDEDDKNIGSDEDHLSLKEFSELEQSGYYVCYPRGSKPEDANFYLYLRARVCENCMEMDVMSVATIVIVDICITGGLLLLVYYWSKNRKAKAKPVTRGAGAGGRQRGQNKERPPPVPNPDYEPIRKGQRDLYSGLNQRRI

B1: 2G12-2B2 having VL0 and VH3 variable domains (antibody, V domains shown)
VH: EVQLVQSGAEVKKPGASVKVSCKASGYTFTDHAIHWVRQAPGQGLEWMGYFSPGNDDIKYNEKFRGRVTMTADKSSSTAYMELRSLRSDDTAVYFCKRSLSTPYWGQGTLVTVSS
VL: DIVMTQSPDSLAVSLGERATINCKSSQSLLNRGNHKNYLTWYQQKPGQPPKLLIYWASTRESGVPDRFSGSGSGTDFTLTISSLQAEDVAVYYCQNDYTYPYTFGQGTKVEIK
notes: also called 2G12-2B2 control; 2G12-2B2 comprising VL0 and VH3
  binding result: no binding (tested: 0 to 10 µg per 500,000 cells)
